{"source": "paper PMC5634487", "about": "“Structural basis for IL-1α recognition by a modified DNA aptamer that specifically inhibits IL-1α signaling” (Nature Communications, 2017)", "target": "T1, human IL-1α, biotinylated (human, UniProt P01583 113-271, biotin (EZ-Link NHS-Peg4-Biotin, 10-fold molar excess; sites not stated))", "T1 construct": "interleukin-1 alpha (IL1A), human; crystallised); If it was the ProSpec protein, it may carry a His tag (surmised from the Talon beads); also called IL-1a; IL1F1; source: purified IL-1α protein, biotinylated with EZ-Link NHS-Peg4-Biotin", "T1 sequence (looked up)": "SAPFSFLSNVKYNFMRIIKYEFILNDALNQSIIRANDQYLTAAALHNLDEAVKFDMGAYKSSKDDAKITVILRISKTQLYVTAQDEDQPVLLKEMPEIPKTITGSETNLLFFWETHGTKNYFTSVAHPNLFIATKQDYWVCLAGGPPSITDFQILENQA", "test": "radioligand binding; competition: 32P-labelled aptamer SL1067 (~30 pM) and unlabelled receptor (10^-6 to 10^-11 M) with biotinylated IL-1α (2 nM) in SB18T buffer (40 mM HEPES pH 7.5, 102 mM NaCl, 5 mM KCl, 5 mM MgCl2, 0.01% Tween-20), 37 °C, 60 min; complexes captured on MyOne streptavidin resin and Durapore filter plates; one-site competition model", "conditions": "both partners purified"}
{"binder": "recombinant IL-1RI, extracellular domain (receptor, UniProt P14778 18-336, looked up, interleukin-1 receptor type 1, extracellular domain; also called IL-1R1; IL-1 receptor; source: bought: R&D Systems) LEADKCKEREEKIILVSSANEIDVRPCPLNPNEHKGTITWYKDDSKTPVSTEQASRIHQHKEKLWFVPAKVEDSGHYYCVVRNSSYCLRIKISAKFVENEPNLCYNAQAIFKQKLPVAGDGGLVCPYMEFFKNENNELPKLQWYKDCKPLLLDNIHFSGVKDRLIVMNVAEKHRGNYTCHASYTYLGKQYPITRVIEFITLEENKPTRPVIVSPANETMEVDLGSQIQLICNVTGQLSDIAYWKWNGSVIDEDDPVLGEDYYSVENPANKRRSTLITVLNISEIESRFYKHPFTCFAKNTHGIDAAYIQLIYPVTNFQK", "values": [{"measurement": "Ki", "value": 0.021, "unit": "µM"}]}
{"binder": "recombinant IL-1RII, extracellular domain (receptor, UniProt P27930 14-343, looked up, interleukin-1 receptor type 2, extracellular domain; also called IL-1RI1 (as printed in the methods); source: bought: R&D Systems) FTLQPAAHTGAARSCRFRGRHYKREFRLEGEPVALRCPQVPYWLWASVSPRINLTWHKNDSARTVPGEEETRMWAQDGALWLLPALQEDSGTYVCTTRNASYCDKMSIELRVFENTDAFLPFISYPQILTLSTSGVLVCPDLSEFTRDKTDVKIQWYKDSLLLDKDNEKFLSVRGTTHLLVHDVALEDAGYYRCVLTFAHEGQQYNITRSIELRIKKKKEETIPVIISPLKTISASLGSRLTIPCKVFLGTGTPLTTMLWWTANDTHIESAYPGGRVTEGPRQEYSENNENYIEVPLIFDPVTREDLHMDFKCVVHNTLSFQTLRTTVKE", "values": [{"measurement": "Ki", "value": 0.29, "unit": "µM"}]}
